# “Also recorded” adds a separate entry of the source.
# B1: Nani-P2: Tat derivative polypeptide SEQ ID NO:3; TF SIVagmVer, cysteine-rich HIV-1, C-terminal SIVagmVer (protein)
# chain: MDPKGEEDQDVSHQDLIKQYRKPRTACNNCYCKKCCFHCYACFLRKGLGITYHAFRTRRKKIASADRIPVPQQSISIRGRDSQTTQESQKKVEEQAKANLRISRKNLGDETRGPVGAGN
# modifications: Tat derivative polypeptide
# notes: TF SIVagmVer, cysteine-rich HIV-1, C-terminal SIVagmVer
# Key:
# [1] = test system: IFN-γ; test: ELISA analysis of IFN-γ production by immune spleen cells of 4T1 tumor-bearing mice; type: in vivo, mouse
# Method: Splenocyte secretion of IFN-γ was assessed by an OptEIA™ ELISA kit (BD Biosciences). Briefly, spleen cells (1×10^5/well) from 4T1 tumor-bearing mice were cultured with or without 5×10^3/well mitomycin C (50 μg/ml)-treated 4T1 cells (used to provide tumor antigens) in DMEM at a 20:1 E:T (effector:[…]) in 96-well plates. Supernatants were collected after 72 hr and kept frozen at −80° C. until analysis without loss of activity. IFN-γ was measured in cell-free supernatants of duplicate wells by ELISA according to the manufacturer's instructions. Tumor-specific IFN-γ production was calculated by subtracting the background values measured in supernatants of spleen cells cultured with medium alone and optical density (OD) values were converted to pg/ml amounts of IFN-γ using a recombinant IFN-γ standard curve. Stimulation index (SI) was calculated as the ratio of IFN-γ in stimulated versus control cultures.
# To determine whether cytotoxic T-lymphocytes play a role in tumor rejection induced by Nani-P2 therapy, an IFN-γ ELISA assay (FIG. 7) was performed to compare spleen cells of 4T1 tumor-bearing mice treated either without (Control) or with Nani-P2 (FIG. 7). Spleens were removed under sterile conditions and prepared as described elsewhere (duPre'S. et al. Exp. Mol. Path. 85:174-188, 2008). Briefly, spleens were homogenized and splenocytes, as a rich source of systemic cytolytic T cells and APCs, were co-cultured with mitomycin C-treated 4T1 stimulator cells to induce recall immune responses. Control wells were cultured with medium alone.
# [2] = test system: 4T1 breast tumors; test: Kaplan-Meier survival of mice bearing 4T1 breast tumors; type: in vivo, mouse
# Method: To determine whether Nani-P2 treatment could extend survival in addition to shrinking primary tumors in mice, treatment protocols using various dosing schedules and routes (SC, IV or IT) of administration of 40 ng Nani-P2 were performed. Cohorts of ten mice per group were followed for length of survival, as assessed by use of the Kaplan-Meier product limit method. As per Columbia University Medical Center Animal Facility regulations, each mouse was euthanized at a mean tumor diameter of approximately 15 mm, or earlier if the mouse became moribund, making one of these two outcomes the defining criteria for fatality.
# [3] = test system: Human monocytes; test: CD86 expression of human monocytes cultured with Tat derivative; type: cell-based; conditions: cultured 24-48 hours; fluorescent-labeled CD86; compared with ISS (TLR) or LPS
# Method: Human monocytes were cultured for 24-48 hours with a Tat derivative (Nani-P2), an immunostimulatory sequence (ISS) of a toll-like receptor (TLR) (FIG. 1), or lipopolysaccharide (LPS) (FIG. 2) and the cells were then washed and stained with fluorescent-labeled CD86.
# [4] = test system: SM1 breast cancer cells; test: SM1 mammary carcinoma model, primary tumor growth; type: in vivo, mouse
# Method: BALB/c mice were injected (SC) with 1×10^4 4 T1, 1×10^5 TS/A or 2×10^5 SM1 cells, respectively, in the left mammary pad on day 0. […] The control group received PBS injection. […] Tumor burden (tumor volume) was measured and recorded three times weekly. Animals were sacrificed when tumors reached a volume of 15 mm in diameter and the tumors harvested and weighed.
# The SM1 mammary carcinoma model (FIG. 6B) is initially less aggressive as a primary tumor, and deaths appear to be through mechanisms other than metastatic disease. By day 30 of treatment, SM1 tumors reached a mean volume approximately 33% smaller than either TS/A or 4T1. This indicated a heightened sensitivity of the SM1 tumor to Nani-P2 immunotherapy as compared to 4T1, such that tumor growth was suppressed in 100% of animals for 16 days, and 40% of animals remained in remission even at 28 days following implant and fully one week after termination of the regimen.
# [5] = test system: tumor infiltrating CD8+ CTL; test: IHC staining of primary 4T1 breast tumors for CD8; type: in vivo, mouse; conditions: therapy initiated 7 days after inoculation; resected Day 29/30; listed as PIN-2
# Method: (§1) Female BALB/c mice were inoculated in the mammary fat pad with syngeneic and highly metastatic 4T1 breast cancer cells to model Stage IV human breast cancer. Nani-P2 immunotherapy was initiated 7 days after tumor cell inoculation. Tumors were assessed by caliper measurements throughout the study and resected on Day 29/30. Immunohistochemical staining (IHC) for PD-L1 and CD8 was performed on formalin-fixed, paraffin embedded specimens of primary 4T1 tumors.
# [6] = test system: 4T1 lung metastases; test: Detection of 4T1 lung metastases; type: in vivo, mouse
# Text: Lungs were examined for 4T1 metastases as previously described (Pulaski B. et al. Cancer Res. 60:2710-2715, 2000). Primary 4T1 tumors that have been established for 2-3 weeks in BALB/c mice metastasize to the lungs in a very large majority of animals. Briefly, mice were sacrificed according to IACUC guidelines established at the start of the trials, the lungs were removed, and tumor nodules on the surface of the lungs were enumerated with the naked eye by two independent investigators blinded to the treatment protocols.
# To further investigate the efficacy of Nani-P2 against established and metastatic breast cancer, 4T1 cells were injected SC in the abdominal mammary gland of mice and treatment was delayed until such time that the tumors had metastasized to the lungs and averaged 3.5 mm in size (FIG. 8A, day 13), corresponding to a 2.4 cm or stage T2 human breast tumor. Mice were followed for tumor growth (FIG. 8A) and lung metastases (FIG. 8B). […] This corresponded to a less aggressive appearance of primary tumor, as well as lung metastases that were on average much smaller in size (FIG. 8B).
# [7] = Toxicity observed in treated mice; type: in vivo, mouse; conditions: SC or IV 40 ng, multiple trials, multiple dosing schedules
# [8] = test system: PD-L1; test: IHC staining of primary 4T1 breast tumors for PD-L1; type: in vivo, mouse; conditions: therapy initiated 7 days after inoculation, resected Day 29/30
# Method: as §1
molecule,measurement,setting,value
B1,IFN-γ production of spleen cells versus control mice,"[1]; 40 ng SC weekly for 4 weeks, spleens day 33, 72 hr culture, all conditions of assay",significantly (p<0.05*) higher
same,baseline levels of INF-γ secreted by splenocytes versus PBS control mice,[1]; no in vitro restimulation,8 -fold
same,stimulation index,"[1]; tumor stimulators + IL4 + GM-CSF, versus control",53
same,"survival, intratumoral administration","[2]; 40 ng IT, three weekly cycles, tumors established fourteen days",slightly inferior to SC administration
same,survival at day 47,"[2]; 40 ng IV, three weekly cycles, tumors established fourteen days, p<0.005",60%
same,treated mice still alive at day 48,"[2]; 40 ng SC, 4 doses over 21 days from tumor implant, p<0.001",35%
same,survival at day 47,"[2]; 40 ng SC, three weekly cycles, tumors established fourteen days, p<0.05",20%
same,survival versus control mice,[2]; 4T1 model,increased survival compared with control mice
same,"tumor growth inhibition and survival benefits, extension past the last dosing","[2]; established 4T1 tumors, treated intravenously",at least 36 days
same,survival versus controls at day 42,[2]; four doses 40 ng SC from day 0,statistically significant better survival over controls
same,"survival benefit versus control, IV","[2]; three weekly doses 40 ng IV, therapy delayed until day 13/14, day 47",very highly statistically significant benefit to survival; also recorded: highly statistically significant
same,"survival benefit versus control, SC","[2]; three weekly doses 40 ng SC into draining lymph nodes, therapy delayed until day 13, day 47",statistically significant
same,expression of CD86,[3],higher expression of CD86 than either ISS (TLR) or LPS
same,animals with SM1 tumor growth suppressed for 16 days,"[4]; 40 ng SC days 0, 7, 14, 21",100%
same,difference in SM1 primary tumor growth versus control,"[4]; 40 ng SC days 0, 7, 14, 21, p<0.01",highly statistically significant
same,animals remaining in remission at 28 days following implant,"[4]; 40 ng SC, one week after termination of the regimen",40%
same,tumor infiltrating CD8+ CTL versus PBS control,[5],infiltrating CD8+ CTL advancing around tumor edge; also recorded: significant increase in the population of tumor infiltrating CD8+ CTL
same,lung metastases versus controls,[6]; 4T1 model,significantly inhibited the development of spontaneous 4T1 lung metastases; also recorded: dramatic reduction in the visible number of lung metastases
same,average number of grossly visible tumor nodules in the lungs,"[6]; treated IV, treatment delayed to day 13, p<0.01",seven
same,toxicity,[7],no toxicity was observed
same,PD-L1 expression in primary 4T1 tumors versus controls,[8],reduced
same,PD-L1 expression in primary 4T1 tumors versus controls,[8]; listed as PIN-2,reduced PD-L1 presence near the tumor edge

# Source: patent US10159707B2, “Treatment of cancers with immunostimulatory HIV Tat derivative polypeptides” (PIN Pharma, Inc., priority 2013, dated 2018)
